Reference: FireProtDB (doi:10.1016/0167-4838(91)90474-e)
Several values for one entry are separate records, joined by “and”; a condition that tells them apart may be missing. Equal values may be shown once.

Settings: Gallus gallus, Absorbance, Sodium phosphate 0.06 M, reversible: yes, whole UniProt chain shown; for unfolding enthalpy (van 't Hoff): Thermal; for denaturant m value / denaturant midpoint (higher = more stable) / unfolding free energy: 25 °C, Urea

B1: Ovomucoid wild type, P01005 (protein)
chain: MAMAGVFVLFSFVLCGFLPDAAFGAEVDCSRFPNATDKEGKDVLVCNKDLRPICGTDGVTYTNDCLLCAYSIEFGTNISKEHDGECKETVPMNCSSYANTTSEDGKVMVLCNRAFNPVCGTDGVTYDNECLLCAHKVEQGASVDKRHDGGCRKELAAVSVDCSEYPKPDCTAEDRPLCGSDNKTYGNKCNFCNAVVESNGTLTLSHFGKC
- unfolding enthalpy (van 't Hoff) (pH 5): 34 kcal/mol and 30 kcal/mol
- unfolding enthalpy (van 't Hoff) (pH 5, transition: 3): 30 kcal/mol and 44 kcal/mol
- denaturant m value (pH 7): 1.35 kcal/mol/M and 1.15 kcal/mol/M
- denaturant midpoint (higher = more stable) (pH 7): 2.7 M and 2.8 M
- unfolding free energy (pH 7): 4.65 kcal/mol and 3.39 kcal/mol
- denaturant m value (pH 7, transition: 3): 1.01 kcal/mol/M and 1.03 kcal/mol/M and 1.02 kcal/mol/M
- denaturant midpoint (higher = more stable) (pH 7, transition: 3): 7.3 M and 2.8 M and 6.9 M
- unfolding free energy (pH 7, transition: 3): 7.66 kcal/mol and 3.39 kcal/mol and 7.42 kcal/mol
- unfolding enthalpy (van 't Hoff) (pH 7): 58 kcal/mol and 37 kcal/mol
- unfolding enthalpy (van 't Hoff) (pH 7, transition: 3): 82 kcal/mol and 54 kcal/mol and 46 kcal/mol
